Laboratory results published in the supplement of paper PMC10126150.
± gives the standard deviation of the averaged measurements.

Test system: ATP
Experiment: switch fluorescence ratio, 500 uM ATP over buffer (Cy3 cluster intensity, sum of 5 cycles each) (fold (ratio)); higher = stronger signal-on switching upon ATP binding; sequences stand for … in TCGTCGGCAGCGTCAGATGTGTATAAGAGACAGTTTTTTTTTTTTTTTTTTTTTTTTT…TC
Details: aptamer strand: ATP DNA aptamer (quencher-CACCTGGGGGAGTATTGCGGAGGAAGG + anchor), 100 nM annealed; ATP concentration: 500 uM
How it was run: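 Five buffer/ATP imaging cycles were run on Cy3-labelled switching-strand clusters on a modified Illumina MiSeq flow-cell, with NaOH stripping and re-annealing between cycles. In each cycle, clusters annealed to 100 nM quencher-labelled ATP aptamer were imaged in selection buffer, then after 15 min with 500 uM ATP at 22 °C. Per cluster, the fluorescence ratio is summed target-cycle over summed buffer-cycle Cy3 intensity, averaged per switch-domain sequence. Only clusters within 100-1000 RFU were kept.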
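Note: ATP exposure 15 min at 22 °C before imaging.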

In the case of GTAAGTTGGG, the switch fluorescence ratio is reported as 0.993 ± 0.024.

With GAGTCGTGTG the switch fluorescence ratio was 1.04 ± 0.024.

Sequence TAAATAATCG has a switch fluorescence ratio of 0.968 ± 0.038.

TTAGGGGGCC gave a switch fluorescence ratio of 1.07 ± 0.035.

Work on ATAAAAACAT yielded a switch fluorescence ratio of 1 ± 0.027.

Sequence CATCGAGTGT has a switch fluorescence ratio of 1.05 ± 0.029.

Sequence AGCATTGTGG has a switch fluorescence ratio of 0.996 ± 0.018.

GGGTGATCGA gave a switch fluorescence ratio of 0.98 ± 0.054.

Work on AGACGGGGGG yielded a switch fluorescence ratio of 1 ± 0.039.

GAGTAAGTGC showed a switch fluorescence ratio of 0.972 ± 0.053.

With CAAGGGTATG the switch fluorescence ratio was 1.03 ± 0.046.

With TATGGGCCAG the switch fluorescence ratio was 0.996 ± 0.02.

Work on TAGGGGCTCG yielded a switch fluorescence ratio of 0.999 ± 0.032.

TCGGAAAGGG showed a switch fluorescence ratio of 0.9961 ± 0.0049.

With AGGAGATGGG the switch fluorescence ratio was 1.02 ± 0.034.

With TACGTTGAAA the switch fluorescence ratio was 1.17 ± 0.19.

For TAGAGGGGG, the switch fluorescence ratio was 1.01 ± 0.014.

With GGTATTCAGC the switch fluorescence ratio was 0.957 ± 0.052.

Work on GGAGGGCCTG yielded a switch fluorescence ratio of 0.986 ± 0.013.

For GATCGCTATC, the switch fluorescence ratio was 2.91 ± 0.39.

ATTGGACAAT showed a switch fluorescence ratio of 1.02 ± 0.032.

With TCGTGACGAA the switch fluorescence ratio was 1.03 ± 0.02.

AAATAAAAAG showed a switch fluorescence ratio of 1.01 ± 0.027.

Sequence CCAGATAACG has a switch fluorescence ratio of 1.04 ± 0.022.

ATTCGGTTTT gave a switch fluorescence ratio of 0.97 ± 0.013.

TATTCCTTGG was tested, and the switch fluorescence ratio was 0.966 ± 0.012.

Sequence TTGGTAGAAT has a switch fluorescence ratio of 1.01 ± 0.014.

In the case of CGCTCATCTG, the switch fluorescence ratio is reported as 0.968 ± 0.052.

For TGGACAGACA, the switch fluorescence ratio was 1.111 ± 0.0046.

Sequence GAACATCTCG has a switch fluorescence ratio of 0.993 ± 0.035.

With GAAAGGGGTG the switch fluorescence ratio was 1.02 ± 0.064.

For ACAAGGGTTC, the switch fluorescence ratio was 1 ± 0.015.

For CAGGGGTATA, the switch fluorescence ratio was 1.02 ± 0.024.

Work on CGGTGTTAGC yielded a switch fluorescence ratio of 0.976 ± 0.0015.

Work on TGCCGGCGGG yielded a switch fluorescence ratio of 0.9629 ± 0.0043.

Work on ATTATCGGGA yielded a switch fluorescence ratio of 1.02 ± 0.0017.

Work on AATTTGTAAA yielded a switch fluorescence ratio of 0.981 ± 0.04.

CTGGGGTTTG showed a switch fluorescence ratio of 0.956 ± 0.019.

Sequence GGTTTATTGT has a switch fluorescence ratio of 0.993 ± 0.056.

GTAAGGAGAG showed a switch fluorescence ratio of 1.02 ± 0.017.

With TAGGGTGCTG the switch fluorescence ratio was 1.09 ± 0.16.

GGTGGAAGGG showed a switch fluorescence ratio of 0.975 ± 0.03.

GCGGGGTTTG was tested, and the switch fluorescence ratio was 1.01 ± 0.015.

Sequence GTTGTGGTAT has a switch fluorescence ratio of 0.9785 ± 0.0027.

TTTAAATTTT was tested, and the switch fluorescence ratio was 1 ± 0.03.

For AAAGTTATAC, the switch fluorescence ratio was 1.12 ± 0.037.

CGGGATTCGT was tested, and the switch fluorescence ratio was 1 ± 0.057.

GGGTGGCAGC gave a switch fluorescence ratio of 0.993 ± 0.031.

For TTGTGAGGCA, the switch fluorescence ratio was 1.006 ± 0.0066.

GGGGATGAGC gave a switch fluorescence ratio of 1.04 ± 0.037.

In the case of GAGTGAAGGG, the switch fluorescence ratio is reported as 1.02 ± 0.016.

Work on TTCGAGAGTA yielded a switch fluorescence ratio of 1.05 ± 0.1.

GGGGTGTTCA was tested, and the switch fluorescence ratio was 0.999 ± 0.047.

Sequence ATGCAAGGCA has a switch fluorescence ratio of 1.02 ± 0.04.

GTGAGGGGTT showed a switch fluorescence ratio of 0.971 ± 0.044.

AAGGCAAGTC was tested, and the switch fluorescence ratio was 1.13 ± 0.091.

Work on GAGGGGCAGT yielded a switch fluorescence ratio of 0.975 ± 0.02.

In the case of TAGGGTATGA, the switch fluorescence ratio is reported as 1.01 ± 0.02.

In the case of AAGGGGAGAA, the switch fluorescence ratio is reported as 0.9872 ± 0.008.

Sequence GACGCTTCG has a switch fluorescence ratio of 0.931 ± 0.017.

With TTATGTCGAG the switch fluorescence ratio was 0.978 ± 0.034.

With AATTTTTAT the switch fluorescence ratio was 1 ± 0.0022.

With CATTCTGCGG the switch fluorescence ratio was 1.049 ± 0.002.

AGGTCAGTTT gave a switch fluorescence ratio of 0.989 ± 0.017.

In the case of TCGACTCAGG, the switch fluorescence ratio is reported as 1.05 ± 0.028.

ATTTCTCAGG showed a switch fluorescence ratio of 1.07 ± 0.017.

Work on ATAGCTTGGC yielded a switch fluorescence ratio of 1.011 ± 0.0047.

CAGGTAAGCG gave a switch fluorescence ratio of 0.969 ± 0.051.

Sequence TTGTTGCAGC has a switch fluorescence ratio of 1.02 ± 0.035.

TTTTTTATCA gave a switch fluorescence ratio of 0.98 ± 0.029.

Sequence TACGGCGGAA has a switch fluorescence ratio of 1.02 ± 0.047.

For AAGTGCTTGA, the switch fluorescence ratio was 1 ± 0.069.

Sequence GAAGATTGGT has a switch fluorescence ratio of 0.981 ± 0.028.

TGGGTGACGA was tested, and the switch fluorescence ratio was 1.01 ± 0.024.

GTGGCTGGGT showed a switch fluorescence ratio of 0.981 ± 0.015.

Work on AGTTTTACAG yielded a switch fluorescence ratio of 1.01 ± 0.02.

Work on GTGGGAATAT yielded a switch fluorescence ratio of 1.001 ± 0.0083.

With AACGACTATG the switch fluorescence ratio was 1.05 ± 0.029.

AGAGATGGGG showed a switch fluorescence ratio of 0.996 ± 0.022.

TCAATCAGAG was tested, and the switch fluorescence ratio was 1.01 ± 0.0045.

Sequence CGCATCGGTC has a switch fluorescence ratio of 1.16 ± 0.049.

Sequence CGCAAAAGGG has a switch fluorescence ratio of 1.54 ± 0.41.

In the case of TTTCTTAGTT, the switch fluorescence ratio is reported as 1.04 ± 0.017.

For AGGTTGGATT, the switch fluorescence ratio was 0.9706 ± 0.0039.

With ATTGTCTCTA the switch fluorescence ratio was 0.999 ± 0.032.

With TAGTTTGGGC the switch fluorescence ratio was 0.983 ± 0.019.

ATCGGTGGGA gave a switch fluorescence ratio of 0.992 ± 0.0031.

In the case of GATTCATTAT, the switch fluorescence ratio is reported as 0.988 ± 0.011.

CTTAAATTAT was tested, and the switch fluorescence ratio was 0.9967 ± 0.0089.

In the case of ACTTCTAGCG, the switch fluorescence ratio is reported as 1.02 ± 0.072.

Sequence CGGTGGGCTA has a switch fluorescence ratio of 1.013 ± 0.0052.

CCAATTGAAG was tested, and the switch fluorescence ratio was 1.02 ± 0.016.

Work on GAGGGACTAA yielded a switch fluorescence ratio of 0.9972 ± 0.0095.

Sequence GGGGAACGGC has a switch fluorescence ratio of 0.963 ± 0.036.

For TCTAGGGTGC, the switch fluorescence ratio was 1.13 ± 0.042.

CTATATAAAT gave a switch fluorescence ratio of 0.997 ± 0.059.

TATCGGGATA showed a switch fluorescence ratio of 0.994 ± 0.021.

TTTCTAGTCT showed a switch fluorescence ratio of 0.935 ± 0.0085.

Sequence TAAAGTGGCT has a switch fluorescence ratio of 0.985 ± 0.03.

In the case of GCTAACATTT, the switch fluorescence ratio is reported as 0.974 ± 0.029.

Sequence TAGGTGAAGG has a switch fluorescence ratio of 1 ± 0.0069.

TTGGGCATTG was tested, and the switch fluorescence ratio was 1.01 ± 0.017.

Sequence TTTTATATGT has a switch fluorescence ratio of 1.02 ± 0.028.

AATATTTCAT showed a switch fluorescence ratio of 0.966 ± 0.025.

Work on CACTTACGTT yielded a switch fluorescence ratio of 1.347 ± 0.012.

CATTACTGTA was tested, and the switch fluorescence ratio was 1.24 ± 0.076.

CTTGTGAGGA showed a switch fluorescence ratio of 1 ± 0.036.

Work on TGCGATGACT yielded a switch fluorescence ratio of 1.45 ± 0.65.

CCTAAGAATG showed a switch fluorescence ratio of 1.043 ± 0.0035.

AGAGAGACGG was tested, and the switch fluorescence ratio was 0.997 ± 0.026.

ATGCTGCGGG showed a switch fluorescence ratio of 1.06 ± 0.068.

TCGGGTTAGG was tested, and the switch fluorescence ratio was 0.998 ± 0.032.

Sequence GGTACTTGTT has a switch fluorescence ratio of 1.05 ± 0.052.

For GAGGCATGGA, the switch fluorescence ratio was 0.9864 ± 0.0039.

CAGAGGGCAG showed a switch fluorescence ratio of 1.02 ± 0.047.

GAAGAGGGGG was tested, and the switch fluorescence ratio was 0.991 ± 0.043.

With TGTTTTAAGG the switch fluorescence ratio was 1.009 ± 0.0081.

In the case of AATTGGATGT, the switch fluorescence ratio is reported as 1.01 ± 0.021.

CATTTGGGCG was tested, and the switch fluorescence ratio was 1.03 ± 0.015.

AATTCCATTT gave a switch fluorescence ratio of 1.01 ± 0.023.

AAGCTGGGAC gave a switch fluorescence ratio of 1.08 ± 0.015.

With TGGAGTGGGT the switch fluorescence ratio was 1.01 ± 0.011.

In the case of ATATACGAGT, the switch fluorescence ratio is reported as 1.002 ± 0.005.

Work on GGGCGCTGGG yielded a switch fluorescence ratio of 1 ± 0.032.

Sequence AAGGATGAGG has a switch fluorescence ratio of 0.987 ± 0.021.

With TTGTGGGAAA the switch fluorescence ratio was 1.02 ± 0.016.

ATCGGGTAAG gave a switch fluorescence ratio of 1.01 ± 0.024.

For AGGGGCTATT, the switch fluorescence ratio was 1.01 ± 0.014.

For GATAAAATAG, the switch fluorescence ratio was 1.17 ± 0.2.

CGTGTTTTTC was tested, and the switch fluorescence ratio was 0.996 ± 0.026.

For CGGGTGGTTT, the switch fluorescence ratio was 0.988 ± 0.03.

In the case of AACCGGGATC, the switch fluorescence ratio is reported as 1.14 ± 0.013.

TCTGAAGATC gave a switch fluorescence ratio of 1.06 ± 0.065.

CGGTCGCGTG gave a switch fluorescence ratio of 0.988 ± 0.02.

Work on TCGGGGTGGG yielded a switch fluorescence ratio of 1.03 ± 0.043.

TCGAAGGGGG showed a switch fluorescence ratio of 1.1 ± 0.16.

GGGGGATGTC gave a switch fluorescence ratio of 1 ± 0.034.

In the case of GGGATATAGT, the switch fluorescence ratio is reported as 0.9696 ± 0.0044.

CGTGTTAACT showed a switch fluorescence ratio of 0.992 ± 0.047.

TGATTTTGGG showed a switch fluorescence ratio of 0.997 ± 0.035.

In the case of TTCGGGTTGG, the switch fluorescence ratio is reported as 1.02 ± 0.015.

Sequence GGGGTCAGAC has a switch fluorescence ratio of 1 ± 0.022.

AGGCAGGTTG showed a switch fluorescence ratio of 0.985 ± 0.019.

Sequence ATGCATGGTA has a switch fluorescence ratio of 1.03 ± 0.009.

ATGAATTGGT gave a switch fluorescence ratio of 1.01 ± 0.019.

CGGGGCTTGT gave a switch fluorescence ratio of 0.985 ± 0.013.

In the case of GTTTGGGTCT, the switch fluorescence ratio is reported as 0.997 ± 0.013.

Sequence AAACTAGCTG has a switch fluorescence ratio of 1 ± 0.025.

Work on ATCGCTGGTA yielded a switch fluorescence ratio of 1.02 ± 0.031.

CGTATAAGAG showed a switch fluorescence ratio of 0.991 ± 0.027.

TGGCCTATCC gave a switch fluorescence ratio of 1.17 ± 0.04.

In the case of AGCATACAAA, the switch fluorescence ratio is reported as 0.98 ± 0.012.

Sequence GGGATCAGTG has a switch fluorescence ratio of 0.995 ± 0.03.

GCAGGATGGG gave a switch fluorescence ratio of 0.98 ± 0.019.

ACAAGTCGTT gave a switch fluorescence ratio of 0.972 ± 0.039.

GAAATACGGG gave a switch fluorescence ratio of 1.09 ± 0.043.

With GTTAAATTCA the switch fluorescence ratio was 1 ± 0.024.
